This passage reports Kd results from publication PMC5076530.

Test [1] concerns the target human insulin receptor isoform B (human). Nature of the test: radioligand binding; human IR-B in membranes of mouse embryonic fibroblasts (IGF-I receptor knock-out, solely expressing human IR-B); non-linear regression, one-site fit, depletion of free ligand taken into account.
The target in test [2] is human insulin receptor isoform A (human). The experiment in a line: radioligand binding; competition with human 125I-insulin on IR-A in membranes of human IM-9 lymphocytes; non-linear regression, one-site fit, depletion of free ligand taken into account; Kd of 125I-insulin set to 0.3 nM.
Test [3] has as its target human insulin-like growth factor type I receptor (human). The experiment in a line: radioligand binding; competition with human 125I-IGF-I on human IGF-1R in membranes of mouse embryonic fibroblasts (IGF-1R knock-out, transfected with human IGF-1R); non-linear regression, one-site fit; Kd of 125I-IGF-I set to 0.2 nM.

Broadly, the Kd is the constant that tells how readily two partners part at equilibrium. Higher therefore signals a looser complex. On to “IGF-II (recombinant, with an additional glycine at the N terminus) (ligand)”, for which the Kd in test [1] worked out at 43.7 nM; in test [2], 3.03 nM; in test [3], 2.29 nM.
Take [N29,R34_GS,S39_PQ]IGF-II (ligand): the Kd in test [2] came to 19.9 nM; in test [3], 3.19 nM.
In the same order, the values of [N29,S39_PQ]IGF-II (ligand) are 16.8 nM and 1.33 nM.
As for [N29]IGF-II (ligand), the Kd in test [1] turned out to be 108 nM; in test [2] it was 10.3 nM; in test [3], 4.57 nM.
For [R34_GS,S39_PQ]IGF-II (ligand), the Kd in test [2] was 23.4 nM; in test [3], 5.68 nM.
Regarding [R34_GS]IGF-II (ligand), the figures for the Kd in test [2] and in test [3] were 15.4 nM and 4.13 nM, respectively.
In the same order, the values of [S39_PQ]IGF-II (ligand) are 38 nM and 5 nM.
